Test results as given in patent US20120164153A1 (GOVERNMENT OF THE UNITED STATES AS REPRESENTED BY THE …, published 2012).

Assays:
[1] = biological target: Zaire ebolavirus (ZEBOV) GP (Zaire ebolavirus) (UniProt Q05320); assay: cell-based or functional assay
[2] = biological target: T1, Zaire ebolavirus (ZEBOV) GP (Zaire ebolavirus, UniProt Q05320 33-676); assay: flow cytometry on infected Vero cells (FIG. 15)
T1 construct: whole, on cells; also called Zaire GP
T1 sequence: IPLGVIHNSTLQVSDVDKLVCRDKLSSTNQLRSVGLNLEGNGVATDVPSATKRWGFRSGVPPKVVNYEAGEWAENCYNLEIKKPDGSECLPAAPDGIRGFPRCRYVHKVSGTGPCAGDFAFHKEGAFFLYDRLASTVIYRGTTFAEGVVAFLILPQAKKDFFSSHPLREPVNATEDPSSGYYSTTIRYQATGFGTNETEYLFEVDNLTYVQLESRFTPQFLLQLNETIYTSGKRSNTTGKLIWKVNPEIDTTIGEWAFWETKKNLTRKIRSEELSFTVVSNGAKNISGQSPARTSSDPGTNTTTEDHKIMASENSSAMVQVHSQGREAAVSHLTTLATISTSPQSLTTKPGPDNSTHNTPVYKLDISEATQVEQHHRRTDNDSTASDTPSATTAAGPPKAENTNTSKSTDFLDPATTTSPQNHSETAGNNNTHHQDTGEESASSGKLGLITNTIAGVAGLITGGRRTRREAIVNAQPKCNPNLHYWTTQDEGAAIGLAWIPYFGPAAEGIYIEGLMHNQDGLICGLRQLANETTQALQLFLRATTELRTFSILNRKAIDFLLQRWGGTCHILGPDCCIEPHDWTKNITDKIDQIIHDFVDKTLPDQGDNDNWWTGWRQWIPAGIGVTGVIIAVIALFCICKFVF

Molecule	neutralization of Zaire GP-pseudotyped VSV on 293 cells [1] [%]	binding result [2]
monoclonal antibody KZ52	90	
monoclonal antibody 16F6 (murine IgG1) (antibody, V domains shown, also called mAb 16F6; MAb 16F6) VH: EVQLVESGGGLVTPGGSLKLSCAASGFAFNYYDMFWVRQNTEKRLEWVAYINSGGGNTYYPDTVKGRFTISRDNAKKTLFLQMSSLRSEDTAMYYCARQLYGNSFFDYWGQGTSLTVSA VL: DIVMTQSHKFMSTSVGDRVTITCKASQDVTTAVAWYQQKPGHSPKLLIYWASTRHTGVPDRFTGSGSGTDFTLTLNSVQAEDLALYYCQQHYSTPLTFGAGTKLELK		no binding
